Test results published in paper PMC8526985, “Characterization of the transactivation and nuclear localization functions of Pichia pastoris zinc finger transcription factor Mxr1p”.
Numbering of substitutions follows the chain as printed.

Biological target: T1, Mxr1pN150 (Pichia pastoris (Komagataella phaffii), UniProt C4R818 1-150)
T1 sequence: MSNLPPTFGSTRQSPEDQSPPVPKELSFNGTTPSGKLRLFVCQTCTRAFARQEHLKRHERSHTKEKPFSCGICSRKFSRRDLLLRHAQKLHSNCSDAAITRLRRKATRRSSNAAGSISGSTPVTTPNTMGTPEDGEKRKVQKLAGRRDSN
Test: EMSA; EMSA conditions not given in the material
Conditions: protein: recombinant; (radiolabeled)

B1: ALD6-1 promoter MXRE1 (dsDNA)
DNA 1: CCGCTCAACGGTTCTCCTCTACATCGTCCCTCTTTTGGAG
DNA 2: CTCCAAAAGAGGGACGATGTAGAGGAGAACCGTTGAGCGG
binding result: binds

B2: ALD6-1 promoter MXRE2 (dsDNA)
DNA 1: CCGCACCCCCGAATTTTCACAAATTACCCCACACCCTATA
DNA 2: TATAGGGTGTGGGGTAATTTGTGAAAATTCGGGGGTGCGG
binding result: binds

B3: ALD6-1 promoter MXRE3 (dsDNA)
DNA 1: ACCCTATACTCCACCACTATGAGGGTTATTAGAACTGATC
DNA 2: GATCAGTTCTAATAACCCTCATAGTGGTGGAGTATAGGGT
binding result: binds

B4: MXRE1-M (dsDNA)
DNA 1: B1 DNA 1 with C17A
DNA 2: B1 DNA 2 with G24T
binding result: no binding

B5: MXRE2-M (dsDNA)
DNA 1: B2 DNA 1 with C30A
DNA 2: B2 DNA 2 with G11T
binding result: no binding

B6: MXRE3-M (dsDNA)
DNA 1: B3 DNA 1 with C12A
DNA 2: B3 DNA 2 with G29T
binding result: no binding
